# B1: H6-pnbA (SEQ ID NO: 94) (protein, listed as Bacillus subtilis)
# chain: MTHQIVTTQYGKVKGTTENGVHKWKGIPYAKPPVGQWRFKAPEPPEVWEDVLDATAYGSICPQPSDLLSLSYTELPRQSEDCLYVNVFAPDTPSKNLPVMVWIHGGAFYLGAGSEPLYDGSKLAAQGEVIVVTLNYRLGPFGFLHLSSFNEAYSDNLGLLDQAAALKWVRENISAFGGDPDNVTVFGESAGGMSIAALLAMPAAKGLFQKAIMESGASRTMTKEQAASTSAAFLQVLGINEGQLDKLHTVSAEDLLKAADQLRIAEKENIFQLFFQPALDPKTLPEEPEKAIAEGAASGIPLLIGTTRDEGYLFFTPDSDVHSQETLDAALEYLLGKPLAEKVADLYPRSLESQIHMMTDLLFWRPAVAYASAQSHYAPVWMYRFDWHPKKPPYNKAFHALELPFVFGNLDGLERMAKAEITDEVKQLSHTIQSAWITFAKTGNPSTEAVNWPAYHEETRETLILDSEITIENDPESEKRQKLFPSKGE
# modifications: Esterase (pnbA)
# B2: Bacillus thuringiensis Lipase 2 (protein, listed as Bacillus thuringiensis)
# chain: EVVKELGKGFPDTEVFTPGEWFLGQKPANYDENKPPILFVQGRNGNADSWYGKTVYHDINDMYDYALKAGYQTVFIQLYDAAGKGSASQWDNGKLLAQKLEEIYNYFGKKVNIVAHSKGGIDTQAALVEYGANRFVGNVITLATPHHGSNLADLSYSWWAGWLASILGQKDDGTYSLQIGEMAKFRSIIDNNPAAKLNRYYTATGTSWGPTFSALSMGGLYLSSYGSNDGLVNEWSAKLSYGTHLFTDSRFDHDNIRKGSAVFARIEPYLRTTNVGLPALVASSTSSNEDLEQLNTTSNQNILGGELPQNQWIEQSISVDKKAEGIVSVLTASSDVEVQMVSPKGKIYANKDSAITTGEGESFFNRATIRTFKFDKLEVGEWKIKMMAKQSKDAYLVVSDYKDDAPFVLRMPTKVKINKPEYKLKKSPVAPEMKGDLSITVRVVNKEGKLVSEFNELQNVNTNTFTGALKDIKQPGVYNVTMDIKGMNKEGKPYNRTIVKSVYVEK
# B3: Trichoderma lixii trypsin-like protease (protein, listed as Trichoderma lixii)
# chain: AAITPRGSDIVGGTTAALGEFPYIVSLSTGGSHFCGGVLIDSRTVVTAGHCTIDQRASSVKVRAGTLTWASGGTQVGVSSLTLHPSYTVDSQGVPDNDVGVWHLATAIPTSSTIGYATLPASGSDPAAGTTLTVAGWGTTSENSNSLPSTLRKVSVPVVARATCDSDYDGEISNNMFCAAVAAGGKDSCSGDSGGPIIDPSGTLVGVVSWGQGCAERGFPGVYTRLGNYVSFINSNRG
# modifications: H182 trypsin-like protease
# B4: Bacillus pumulis Collagenase B (ColB) (protein, listed as Bacillus pumulis, listed as Bacillus pumilus)
# chain: IVNGKRVITKKPELLAPAGNLEKLKIAVHYGADAVFIGGQEYGLRSNADNFTIEEIAEGVEFAKKYGAKIYVTTNIFAHNENMDGLEDYLKALGDANVAGIIVADPLIIETCRRVAPNVEVHLSTQQSLSNWKAVQFWKEEGLDRVVLARETSALEIREMKEKVDIEIESFIHGAMCIAYSGRCVLSNHMTARDSNRGGCCQSCRWDYDLYQTDGANAVALYGEEDAPFAMSPKDLKLIESIPKMIEMGIDSLKIEGRMKSIHYVATVVSVYRKVIDAYCADPENFVIQKEWLEELDKCANRDTATAFFEGTPGYEEQMFGEHAKKTTYDFVGLVLNYDEDTQMVTLQQRNFFKKGDEVEFFGPEIENFTHTIETIWDEDGNELDAARHPLQIVKFKLDKKIYPSNMMRKGK
# modifications: Collagenase B (ColB)
# B5: Chitinase C (protein, listed as Bacillus thuringiensis)
# chain: DSPKQSQKIVGYFPSWGVYGRNYQVADIDASKLTHLNYAFADICWKGKHGNPSTHPDNPNKQTWNCKESGVPLQNKEVPNGTLVLGEPWADVTKSYPGSGTTWEDCDKYARCGNFGELKRLKAKYPHLKTIISVGGWTWSNRFSDMAADEKTRKVFAESTVAFLRAYGFDGVDLDWEYPGVETIPGGSYRPEDKQNFTLLLQDVRNALNKAGAEDGKQYLLTIASGASQRYADHTELKKISQILDWINIMTYDFHGGWEATSNHNAALYKDPNDPAANTNFYVDGAIDVYTNEGVPVDKLVLGVPFYGRGWKSCGKENNGQYQPCKPGSDGKLASKGTWDDYSTGDTGVYDYGDLTANYVNKNGFVRYWNDTAKVPYLYNATTGTFISYDDNESMKYKTDYIKTKGLSGAMFWELSGDCRTSPKYSCSGPKLLDTLVKELLGGPINQKDTEPPTNVKNIIVTNKTSSSVQLSWTASTDNVGVTEYEITAGEEKWSATTNSITIKNLKPNTEYTFSVIAKDASGNKSHPTALTVKTDEANTTPPDGNGTATFSVTSNWGSGYNFSIIIKNNGTIPIKNWKLEFDYSGNLTQVWDSKISSKTNNHYVITNAGWNGEIPPGGSITIGGAGTGNPAELLNAVISEN
# B6: H6-pytH (SEQ ID NO: 95) (protein, listed as Sphingobium wenxiniae)
# chain: MTVTDIILIHGALNRGACYDAVVPLLEARGYRVHAPDLTGHTPGDGGHLSVVDMEHYTRPVADILARAEGQSILLGHSLGGASISWLAQHHPDKVAGLIYLTAVLTAPGITPETFVLPGEPNRGTPHALDLIQPVDEGRGLQADFSRLERLREVFMGDYPGEGMPPAEQFIQTQSTVPFGTPNPMEGRALEIPRLYIEALDDVVIPIAVQRQMQKEFPGPVAVVSLPASHAPYYSMPERLAEAIADFADAPAEYRQTATKAGPDRPAGADGGRADRADLP
# modifications: Esterase (pytH)
# B7: Pseudomonas sp. esterase free enzyme concentrate (SEQ ID NO: 248): free enzyme concentrated in an Amicon Ultra 4K filter unit (protein, listed as Pseudomonas sp.)
# chain: MTEPLILQPVKPADACVIWLHGLGADRYDFLPVAEALQEILLSTRFVLPQAPTRPVTINGGYAMPSWYDIKAMSPARAIDRDELEASADRIIELIEEQRSSGIDASRIFLAGFSQGGAVVYHTAFLKWQGPLGGVLALSTYAPTFSDELELSASQQRIPVLSLHGQFDNVVQNSMGRTAYEYLKAHGVTVTWQEYPMEHEVLPEEIRDIGTWLSERLR
# B8: Bacillus thuringiensis Lipase 1 (protein, listed as Bacillus thuringiensis)
# chain: YGFVSGVNDVLNPKASNLIKKTDVVAKEKKKTGTLQIVSLGDSLTRGVGDKEGIGYVGRMKEDLQKDYKQKIALTNLAVSGAKMPDLLKQIESNGAQYSIKQADVIVLTIGGNDLFPGWESLGKIDLETYRPDTETFQNEAKKIIEEIRKLNTDSPIFWLGLYNPFEDVEDLKGSSNIVVDWNASLEKLALNDKNVYITPTFDLFQNRGKDLLYSDHFHPNEVGYTYMAERLVQNVVSKLKLEQGGVK
# B9: Akanthomyces lecanii Acidic Chitinase 1 (Chit1) (protein, listed as Akanthomyces lecanii)
# chain: MAKCTSPDRKCPAPLIDAPINSFMTDGWADTDIHWEGDSWNDSGTNIYGCLKQLNILKKHNRNFKVLLSIGGWTYSSNFPAPASTPEGRDTFAKSCVELVKNLGFDGIDIDWEYPKTAEEAGHFVELLAEVRKQLDEYSARAANNYHFELSVACPAGPDNFQKLNISGMDAYLDFWNLMAYDYAGSWDKNSGHQANLYPCKDAPGCTPFSTVAAVDYYTSNGVSPDKLVLGMPLYGRAFENCDGIGQPFQGVGQGTWEQGVYDYKKLPLEGAEEHKDDDSCATYCHNAESRTLVTYDTPELAKTKADFIKERGLGGGMWWESSADKAGDDSLIQVVVSELGGPEALKQQQNCISYPETKYDNLRDGLPDN
# modifications: Acidic Chitinase 1 (Chit1-H195)
# Tests used:
# Assay type in all cases: in vivo
# [1] = system: Fall armyworm (Spodoptera frugiperda); experiment: Diet-surface overlay (DSO) bioassay; details: number of individuals
# Procedure: (§1) Diet-surface overlay bioassays are conducted with artificial diet mixes without antibiotics in 1.5 cm^2 cell bioassay trays(s). Artificial diets are commercially available from Southland Products Inc. Diets were prepared by dispersing 0.5 mL of molten diet to each 1.5 cm^2 cell. After solidification, 0.1 mL enzyme treatments were dispersed on top of diet in each cell and the tray was gently rocked in an orbital shaker to spread the liquid uniformly over the diet surface. Trays were placed under clean airflow until the surface of each cell was uniformly dried. One or two 16-cell sections were used per treatment (the number in larvae treated was 16 or 32).
# (§2) One healthy first instar larva was placed into each treatment cell, each 16-cell section was covered with a re-sealable lid and incubated at 27° C. and light-dark period of 16:8 hrs. After 7 days, and according to the species, the number of individuals in the following developmental categories was recorded.
# (§3) Negative/untreated controls were treated with filtered water and positive controls were treated with lethal doses of Bacillus thuringiensis subsp. Kurstaki (Btk) spores at 1000 ppm.
# [2] = system: soybean cyst nematode (SCN, Heterodera glycines); experiment: Controlled environment soybean seed treatment trial: SCN cysts on roots; details: for % Comparison to Control: base control = 100%
# [3] = system: Btk resistant Diamondback moth; experiment: Diet-surface overlay (DSO) bioassay; details: Table 47, Btk resistant
# Procedure: as §1, §2
# Diamondback moth (Plutella xylostella): Dead Larva (lack of movement), Larva Stage I (≤50% relative size), Larva Stage II (100% relative size, full size), Early Pupa (light green color), Late Pupa (light-dark brown color), and Adult.
# as §3
# However, both neutral proteases reduced the number of individuals reaching adult stage.
# [4] = Table 50, esterases, n=32, dose per treatment in U/mL Diet
molecule,measurement,setting,value
B1,Larva Stage I,"[1]; Table 50, esterases, n=32",0
same,Larva Stage II,"[1]; Table 50, esterases, n=32",0
same,Larva Stage III,"[1]; Table 50, esterases, n=32",15
same,Larva Stage IV,"[1]; Table 50, esterases, n=32",17
same,Dead Larva,[1]; [4],0
B2,% Comparison to Control,"[2]; Table 20, change in brackets",57% (−43%)
same,Average cysts per g of root tissue,"[2]; Table 20, free enzyme seed treatment, soybean 2830E3, base control 459.7",264.3 cysts per g of root tissue
B3,% Comparison to Control,[2]; Table 11,26%
same,Average cysts per g of root tissue,"[2]; Table 11, free enzyme seed treatment 2 fl oz/unit, soybean P18A98X, ILEVO 0.15 mg AI/seed, 3 weeks after inoculation, base control 71.4",18.6 cysts per g of root tissue
B4,% Comparison to Control,"[2]; Table 22, change in brackets",15% (−85%)
same,Average cysts per g of root tissue,"[2]; Table 22, free enzyme seed treatment, soybean 2830E3, base control 470.7",70.9 cysts per g of root tissue
B5,% Comparison to Control,"[2]; Table 18, change in brackets",78% (−22%)
same,Average cysts per g of root tissue,"[2]; Table 18, free enzyme seed treatment, base control 58.3",45.7 cysts per g of root tissue
B6,Larva Stage I,"[1]; Table 50, esterases, n=32",0
same,Larva Stage II,"[1]; Table 50, esterases, n=32",0
same,Larva Stage III,"[1]; Table 50, esterases, n=32",13
same,Larva Stage IV,"[1]; Table 50, esterases, n=32",19
same,Dead Larva,[1]; [4],0
B7,% Comparison to Control,"[2]; Table 16, change in brackets",75% (−25%)
same,Average cysts per g of root tissue,"[2]; Table 16, seed treatment, soybean 2830E3, concentrate = 4× volumetric concentration, base control 244.3",182.1 cysts per g of root tissue
B8,% Comparison to Control,"[2]; Table 19, change in brackets",75% (−25%)
same,Average cysts per g of root tissue,"[2]; Table 19, free enzyme seed treatment, soybean 2830E3, base control 442.5",332.0 cysts per g of root tissue
B9,Larva Stage I,"[1]; Table 48, chitinases, n = 32",4
same,Larva Stage II,"[1]; Table 48, chitinases, n = 32",5
same,Larva Stage III,"[1]; Table 48, chitinases, n = 32",8
same,Larva Stage IV,"[1]; Table 48, chitinases, n = 32",8
same,Dead Larva,"[1]; Table 48, chitinases, n = 32, dose per treatment in mU/mL Diet",7
same,Dead Larva,"[3]; individuals of n = 32 after 7 days, mU/mL diet: SEQ 182 3.7, SEQ 185 0.6, water 1",2
same,Early Pupa,"[3]; n = 32, doses as E97, water 0",8
same,Larva Stage I,"[3]; n = 32, doses as E97, water 0",2
same,Larva Stage II,"[3]; n = 32, doses as E97, water 0",2
same,Adult,"[3]; n = 32, doses as E97, water 7",1
same,Late Pupa,"[3]; n = 32, doses as E97, water 24",17

# Source: US20240324599A1, “PESTICIDAL ENZYMES FOR USE ON NEMATODES, INSECTS, AND MOLLUSKS” (priority 2023, published 2024)
